Patent publication US20120231013A1 (Amgen, published 2012)
Where a chain is given by its changes, count along the chain named. Several values for one entry are separate records, joined by “and”; a condition that tells them apart may be missing. Equal entries are not always repeated.

B1: LRP-1 peptide LA15 (peptide)
chain: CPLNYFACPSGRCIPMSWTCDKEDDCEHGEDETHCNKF
notes: The end 2733 is inferred from the start of LA16 (2734)
B2: LRP-1 peptide LA25-26 (peptide)
chain: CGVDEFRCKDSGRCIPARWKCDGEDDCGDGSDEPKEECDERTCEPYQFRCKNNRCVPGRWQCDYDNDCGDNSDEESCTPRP
B3: LRP-1 peptide LA23-24 (peptide)
chain: not shown
notes: Tags implied (Ni-NTA, anti-HA detection), not described
B4: LRP-1 peptide LA26 (peptide)
chain: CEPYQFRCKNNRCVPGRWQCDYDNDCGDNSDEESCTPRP
notes: as for B3
B5: LRP-1 peptide LA8-10 (peptide)
chain: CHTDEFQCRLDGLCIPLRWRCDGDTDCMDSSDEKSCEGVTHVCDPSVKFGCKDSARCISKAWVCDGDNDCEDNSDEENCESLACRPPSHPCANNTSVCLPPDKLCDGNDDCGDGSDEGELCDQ
notes: The end 1184 is inferred from the end of Cluster II; Tags implied, not described
B6: LRP-1 peptide LA5-6 (peptide)
chain: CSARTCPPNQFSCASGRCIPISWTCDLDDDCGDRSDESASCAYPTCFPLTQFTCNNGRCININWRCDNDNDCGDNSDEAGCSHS
notes: as for B3
B7: LRP-1 peptide LA4 (peptide)
chain: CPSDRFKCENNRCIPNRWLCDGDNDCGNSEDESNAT
notes: as for B3
B8: LRP-1 peptide LA24-25 (peptide)
chain: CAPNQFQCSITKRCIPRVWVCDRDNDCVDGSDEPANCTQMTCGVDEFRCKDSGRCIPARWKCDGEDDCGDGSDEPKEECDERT
notes: as for B3
B9: LRP-1 peptide LA25 (peptide)
chain: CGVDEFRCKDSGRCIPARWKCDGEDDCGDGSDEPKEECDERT
notes: as for B3

Assays:
[1] = biological target: T1, recombinant TIMP-3 (human or mouse; Table 2 does not say which); test: AlphaScreen, biotinylated TIMP-3, Assay 2
T1 construct: The methods say 'human or mouse TIMP-3'
Procedure: (§1) Peptides were also evaluated by AlphaScreen® (Amplified Luminescent Proximity Homogeneous Assay; PerkinElmer, Waltham, Mass.) a very sensitive non-radioactive homogeneous assay technology that allows the screening of a large range of biological interactions and activities, substantially according to the manufacturer's instructions. Briefly, all dilutions are made in AlphaScreen® Buffer: [40 mM HEPES pH 7.5, 100 mM NaCl, 1 mM CaCl2, 0.1% BSA, 0.05% Tween-20]. The LRP-1 peptides are titrated in a separate polypropylene 96-well plate (Falcon) starting at 4 microM concentration and then diluted serially 3-fold for 12-points, with the last point buffer only. First 2 microL/well of protein titration curve is added to white, small volume, 384-well assay plate (Greiner Bio-One, Stonehouse, UK) in duplicate. Next, 2 microL of biotinylated (AFS, in-house conjmicroGation) recombinant human or mouse TIMP-3, is added at 12 nM (or 3 nM final assay concentration) to the assay plate. Lastly, in subdued light 4 microL of a mixture of streptavidin donor beads, anti-mouse IgG acceptor beads (PerkinElmer) both diluted to 20 microG/mL (10 microG/mL final assay concentration) and 2 nM (1 nM final concentration) rat-anti-HA (clone3F10)-HRP (Roche Diagnostics) is added to the plates. Plates containing 8 microL final assay volme are covered with TopSeal A (to prevent evaporation), spun quickly at 1000 rpm, and incubated overnight (covered with foil to prevent light exposure) before reading on Fusion plate reader (PerkinElmer) using AlphaScreen® parameters (excitation 680 nm and emission 520-620 nm). Data is analyzed using GraphPad Prism 4.01 software. Binding to TIMP-3 is reported as total signal (cps).

recombinant human TIMP-3 [2] = biological target: T2, recombinant human TIMP-3 (human, UniProt P35625 24-211); test: cell-based or functional assay
T2 sequence (looked up): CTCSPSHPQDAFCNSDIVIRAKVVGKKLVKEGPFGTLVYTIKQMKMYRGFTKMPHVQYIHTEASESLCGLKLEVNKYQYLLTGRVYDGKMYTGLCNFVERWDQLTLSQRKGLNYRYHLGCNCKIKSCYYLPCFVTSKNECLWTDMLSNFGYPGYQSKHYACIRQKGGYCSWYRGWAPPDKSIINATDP

MMP-13 = MMP-13 (UniProt P45452 20-471, limits assumed); test: cell-based or functional assay
[3] = biological target: T1, recombinant TIMP-3 (human or mouse; …); test: AlphaScreen, biotinylated TIMP-3, Assay 1
Procedure: as §1

[4] = biological target: T1, recombinant TIMP-3 (human or mouse; …); test: binding ELISA, Assay 3
[5] = biological target: T1, recombinant TIMP-3 (human or mouse; …); test: binding ELISA, Assay 2
recombinant human TIMP-3 [6] = biological target: T2, recombinant human TIMP-3; test: direct ELISA, coated huTIMP-3
Procedure: (§2) After incubation, the coating solution is removed and replaced with 250 microL/well of blocking buffer (1% BSA, TBS [pH 7.5], 1 mM CaCl₂) and incubated with shaking for 1 hour at room temperature. The plates are then washed three times with 200 microL/well with wash buffer 1 (TBS [pH 7.5], 1 mM CaCl₂). The LRP-1 peptides are titrated in assay buffer (0.1% BSA, TBS [pH 7.5], 1 mM CaCl₂, 0.02% Tween-20) in a separate polypropylene non-treated round-bottom 96-well plate (BD Falcon™) starting at 1 microM concentration and then diluted serially 4-fold for 8-points, with the last point buffer only. Then 100 microL/well of the diluted LRP-1 peptide titration is added to the TIMP-3 coated plate and allowed to bind for 1.5 hour at room temperature with shaking. After incubation, the plate is washed three times with 200 microL/well of wash buffer 2 (TBS [pH 7.5], 1 mM CaCl₂, 0.02% Tween-20). […] The assay plate is then washed three times with 200 microL/well with wash buffer 2. The plate is developed by adding 100 microL/well of 1:1 mixture of TMB and H₂O₂ (Pierce, Fisher Thermo Scientific, Rockford Il.), the reaction is stopped by adding 100 microL/well 2NH₂SO₄ (VWR), and read on a SpectraMax microplate reader (Molecular Devices, Sunnyvale, Calif.) at OD450 nm using SOFTmax Pro software version 3.1.2. Data is analyzed using GraphPad Prism 4.01 software. Binding of LRP-1 peptides to TIMP-3 is expressed as binding EC50.

recombinant human TIMP-3 [7] = biological target: T2, recombinant human TIMP-3; test: indirect ELISA, huTIMP-3 captured by anti-TIMP-3 clone 277128
Procedure: Then 100 microL/well of the diluted LRP-1 peptide titration is added to the TIMP-3 coated plate and allowed to bind for 1.5 hour at room temperature with shaking. After incubation, the plate is washed three times with 200 microL/well of wash buffer 2 (TBS [pH 7.5], 1 mM CaCl₂, 0.02% Tween-20). […] The assay plate is then washed three times with 200 microL/well with wash buffer 2. The plate is developed by adding 100 microL/well of 1:1 mixture of TMB and H₂O₂ (Pierce, Fisher Thermo Scientific, Rockford Il.), the reaction is stopped by adding 100 microL/well 2NH₂SO₄ (VWR), and read on a SpectraMax microplate reader (Molecular Devices, Sunnyvale, Calif.) at OD450 nm using SOFTmax Pro software version 3.1.2. Data is analyzed using GraphPad Prism 4.01 software. Binding of LRP-1 peptides to TIMP-3 is expressed as binding EC50.
After incubation, the plate contents are discarded and 250 microL/well of blocking buffer (1% BSA, TBS [pH 7.5], 1 mM CaCl₂) is added to the plate which is incubated with shaking for 1 hour at room temperature. The plate is then washed three times with 200 microL/well with wash buffer 1 (TBS [pH 7.5], 1 mM CaCl₂) followed by the addition of 100 microL of 20 nM recombinant human TIMP-3. The plate is incubated at room temperature for 1 hour. The LRP-1 peptides are titrated as described previously, and 100 microL/well of the diluted LRP-1 peptide titration is added to the TIMP-3 coated plate and allowed to bind for 1.5 hour at room temperature with shaking. After incubation, the plate is washed and the ELISA performed substantially as described previously for the direct binding ELISA.

recombinant mouse TIMP-3 = biological target: T3, recombinant mouse TIMP-3 (mouse, UniProt P39876 24-211); test: direct ELISA, coated muTIMP-3
T3 construct: also called MuTIMP-3
T3 sequence (looked up): T2 sequence (looked up) with T51S, D87E, Q103H, I183S
Procedure: as §2

| Binder | total signal (cps) [1] | % of the inhibitory activity of TIMP-3 + peptide compared to TIMP-3 alone, 16 nM (recombinant human TIMP-3 [2]) | % of the inhibitory activity of TIMP-3 + peptide compared to TIMP-3 alone, 80 nM (recombinant human TIMP-3 [2]) | % of the inhibitory activity of TIMP-3 + peptide compared to TIMP-3 alone, 400 nM (recombinant human TIMP-3 [2]) | % of the inhibitory activity of TIMP-3 + peptide compared to TIMP-3 alone, 2000 nM (recombinant human TIMP-3 [2]) | Direct Inhibition of MMP13 (% decrease), 1000 nM (MMP-13) | total signal (cps) [3] | EC50 [4] | EC50 [5] | EC50 (recombinant human TIMP-3 [6]) | EC50 (recombinant human TIMP-3 [7]) | EC50 (recombinant mouse TIMP-3) | binding result (recombinant mouse TIMP-3) |
| --- | --- | --- | --- | --- | --- | --- | --- | --- | --- | --- | --- | --- | --- |
| B1 | 2000 cps | 104% | 95% | 67% | 58% | 61% | 2200 cps | ~1500 nM | ~5000 nM | 901 nM | 378 nM | – | – |
| B2 | 5000 cps | 97% | 101% | 105% | 101% | – | 20000 cps | – | 673 nM | 167 nM and 99 nM | 41 nM and 20 nM | 117 nM and 80 nM | – |
| B3 | 2000 cps | – | – | 92% | 53% | – | 2200 cps | – | ~600 nM | 187 nM | 85 nM | 140 nM | – |
| B4 | – | 96% | 109% | 112% | 108% | 1% | 2200 cps | – | 300 nM | 118 nM | 179 nM | 134 nM | – |
| B5 | 100000 cps | 94% | 89% | 84% | 93% | -6% | 110000 cps | 657 nM and 1040 nM | – | – | 219 nM | 696 nM | – |
| B6 | 4000 cps | 97% | 80% | 72% | 65% | 16% | 6000 cps | 512 nM | 400 nM | – | 78 nM | 332 nM | – |
| B7 | 2000 cps | – | – | – | – | – | 2200 cps | ~3000 nM | 900 nM | – | – | – | no binding (tested: titration from 1 microM) |
| B8 | 130000 cps | 90% | 88% | 87% | 92% | – | 290000 cps | 436 nM | 211 nM | 162 nM | 32 nM | 124 nM | – |
| B9 | 2000 cps | 96% | 95% | 94% | 94% | – | 5000 cps | ~1000 nM | 1220 nM | 742 nM | 447 nM | – | – |
